The chains are these.
B2: Recombinant HKa domain 5 (HKa D5) (ligand)
chain: VSPPHTSMAPAQDEERDSGKEQGHTRRHDWGHEKQRKHNLGHGHKHERDQGHGHQRGHGLGHGHEQQHGLGHGHKFKLDDDLEHQGGHVLDHGHKHKHGHGHGKHKNKGKKNGKHNGWKTEHLAS
notes: also called HK-D5; D5 domain of HKa

Ends that are not written are not given here. * marks the point of attachment. Fmoc = O=C(OCC1c2ccccc2-c2ccccc21)*

Assay [1] addresses T1, Chicken gizzard tropomyosin (Tpm), purified (chicken).
T1 construct: Bought from Sigma and coated on 96-well plates; also called purified Tpm; immobilized Tpm
Put plainly: displacement of 10 nM biotin-HKa from immobilized chicken gizzard Tpm, 10 µM ZnCl2. As to the method: The N-terminus of the pentapeptide HHPHG has been derivatized (capped) in an attempt to increase the pentapeptides' affinity to Tpm by increasing productive molecular contacts (or interactions). […] The IC₅₀ for the displacement of biotinylated-HKa for the capped peptides shown in the table was determined as follows: 10 nM biotin-HKa was added to a 96 well plate previously coated with 200 ng of chicken gizzard Tpm in the presence of 10 μM ZnCl₂. Increasing amounts of the peptides were added to the wells. The remaining biotin-HKa bound to Tpm was detected using avidin-HRP and a chromogenic substrate. A Kd was determined by non-linear regression analysis of the empirical data

For assay [2], the target named is B2. Description: chymotryptic digest of chicken gizzard Tpm on HK-D5-Sepharose in TBS with 10 uM ZnCl2, elution with 2 M NaCl, SDS-PAGE. As for the experimental part:
Chicken gizzard Tpm (0.4 mg/ml) was incubated with 5 μg/ml chymotrypsin in TBS pH 7.5 at 37° C. and aliquots were taken at the indicated times. SDS-PAGE sample buffer was added and the sample heated at 80° C. for 4 minutes and then loaded onto and run on a 10% NuPage gel (Invitrogen).
Chicken gizzard Tpm was partially digested with Chymotrypsin as described for FIG. 19 for 100 minutes so that a 20 kDa fragment was enriched. HK-D5 had previously immobilized in an activated Sepharose (CNBr-activated Sepharose 4 B, Amersham Biosciences). The chymotryptic fragments were incubated with the HK-D5-Sepharose resin in TBS containing 10 μM ZnCl₂, washed extensively in the same buffer and eluted in 2 M NaCl. The samples were run in a 10% NuPage gel (Invitrogen).

Assay [3] deals with T1, Chicken gizzard tropomyosin (Tpm), …. Description: competition with 10 nM biotin-HKa on plate coated with 200 ng chicken gizzard Tpm, 10 µM ZnCl2. As to the method:
10 nM biotin-HKa was added to a 96 well plate previously coated with 200 ng of chicken gizzard Tpm in the presence of 10 μM ZnCl₂. Increasing amounts of HK-D5, HPRG-H/P domain or endostatin were added to the wells. Bound biotin-HKa was detected and Kd was calculated as for FIG. 10.
Binding to immobilized Tpm is carried out either by a competition assay with a known ligand, biotin-HKa, or by direct binding of the corresponding biotinylated protein. Plates are coated at room temperature with chicken gizzard Tpm (Sigma) in Tris buffer-saline (TBS) (200 ng/well). After incubation for 2 hours, wells are washed with TBS, then 1% BSA/TBS/Tween-20 is added to each well and incubate at 37° C. for two hours. HKa (Enzyme Laboratories) that had been previously biotinylated with EZ-Link (Pierce) according to the manufacturers instructions, is added to the plate at a concentration of 10 nM together with ZnCl₂ (10 μM) and the appropriate concentration of the protein, domain or peptide competitor. The plates are incubated at room temperature and then washed with TBS/Tween-20. Avidin-HRP is added, incubated for 20 minutes at room temperature, washed with TBS/Tween-20 and the chromogenic substrate is added. The reaction is stopped with sulfuric acid and the plate read at 490 nm.

The target is the same in assay [4]. Description: competition ELISA against 10 nM biotin-HKa on immobilized chicken gizzard Tpm, 10 uM ZnCl2. (ELISA stands for enzyme-linked immunosorbent assay.)
Assay [5] has the same target. Put plainly: inhibition of binding of 20 nM biotin-HKa to purified immobilized chicken gizzard Tpm; competition against 20 nM biotin-HKa. As to the method:
FIGS. 7A-7C show specific binding of HKa to purified immobilized Tpm and its inhibition. […] Plates were incubated with increasing concentrations of biotin-HKa in the absence or presence of 10 μM Zn²⁺. […] The IC₅₀ for this inhibition was about 8.1 nM.

Assay [6] has the same target. Put plainly: displacement of 10 nM biotin-HKa from immobilized chicken gizzard Tpm, 10 µM ZnCl2. As to the method: The IC₅₀ for the displacement of biotinylated-HKa for the peptides shown in Table 5 was determined as follows: 10 nM biotin-HKa is added to a 96 well plate previously coated with 200 ng of chicken gizzard Tpm in the presence of 10 μM ZnCl₂. Increasing amounts of the peptides are added to the wells. The remaining biotin-HKa bound to Tpm was detected using avidin-HRP and a chromogenic substrate. A Kd was determined by non-linear regression analysis of the empirical data. The effect on the Matrigel Plug assay was determined as follows: Matrigel (0.5 mL) containing 400 ng/ml of bFGF, 50 μg/ml heparin with or without the peptide (300 μM) or saline buffer are injected in the flanks of a mouse. After five days, the plugs are removed and the plugs scanned.
This is another data set of the same source.

Assay [7] shares this target. Put plainly: binding to Tpm in vitro; assay not detailed.

T1 sequence (chain, as listed by the source limits assumed): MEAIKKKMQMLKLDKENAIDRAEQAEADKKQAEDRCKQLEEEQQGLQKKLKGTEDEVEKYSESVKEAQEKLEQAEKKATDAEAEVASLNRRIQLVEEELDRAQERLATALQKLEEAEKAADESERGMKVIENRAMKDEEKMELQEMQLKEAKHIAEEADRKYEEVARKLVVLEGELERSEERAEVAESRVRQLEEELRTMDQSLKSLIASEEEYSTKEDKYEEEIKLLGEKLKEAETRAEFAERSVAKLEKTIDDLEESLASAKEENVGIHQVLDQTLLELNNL

In turn, HHPHG (not fully specified (N-terminus)) [ATN-275.000.01 ((1S)-(+)-camphorsulphonyl N-capped HHPHG)] returned an IC50 in assay [1] of 30 µM.

B1: Antiangiogenic Ligand-Binding Polypeptide (AALBP), chymotryptic fragment of chicken gizzard Tpm cTPM1 (other)
chain: not shown
For B1, the binding result in assay [2] was “binds”.
As for B2, the “fold higher affinity than endostatin” value in assay [3] is around 1000 fold. For the same molecule, the “IC50 (read off the curve)” value in assay [4] is around 0.002 µM. This molecule came in with an IC50 in assay [5] of around 0.0081 µM.
Molecule {4‑Chlorobenzyl}-HHPHG [ATN-276.000.01 (4-Chlorobenzyl N-capped HHPHG)] gave an IC50 in assay [1] of 23 µM.
In assay [6], TRRHDWGH [ATN232] gave an IC50 of 140 µM.
As for {3‑(1-adamantyl)propanoyl}-HHPHG [ATN-281.000.01 (3-(1-adamantyl)propanoyl N-capped HHPHG)], the IC50 in assay [1] is 59 µM.

B3: ATN230 (peptide)
peptide: HHPHG
notes: Synthetic pentapeptide; also called HHPHG
The molecule B3 came in with an IC50 in assay [6] of 121 µM.
In turn, HPPHG (also called HPPHG) [ATN228] came in with an IC50 in assay [6] of 150 µM.
For the molecule AHPHG [AHPHG (Ala substituted mutant of HHPHG)], the binding result in assay [7] is on record as “no binding”.

B4: Histidine-Proline rich (H/P) domain of HPRG (ligand)
chain: SVNIIHRPPPHGHHPHGPPPHGHHPHGPPPHGHPPHGPPPRHPPHGPPPHGHPPHGPPPHGHPPHGPPPHGHPPHGPPPHGHPPHGHGFHDHGPCDPPSHK
notes: also called HPRG-H/P; HPRG-H/P domain
In the case of B4, the “fold higher affinity than endostatin” value in assay [3] was around 1000 fold.

B5: ATN-278.000.01 (Fmoc N-capped HHPHG) (peptide)
peptide: Fmoc-HHPHG
notes: The text says the N-terminus of the pentapeptide HHPHG was capped
B5 registered an IC50 in assay [1] of 55 µM.
HKNKGKKN [ATN16] came in with a half-maximal inhibitory concentration (IC50) in assay [6] of 99.5 µM.

A word on the IC50: it is the concentration needed to halve the response being measured.

Source of the values: US20050124794A1 (published 2005).
